Experimental data: US12331106B2, “Anti-angiopoietin-2 antibodies that induce Tie2 activation” (Institute for Basic Science, priority 2018, dated 2025)

T1: hAng2 (Homo sapiens, UniProt O15123)
T1 sequence (O15123 19-496): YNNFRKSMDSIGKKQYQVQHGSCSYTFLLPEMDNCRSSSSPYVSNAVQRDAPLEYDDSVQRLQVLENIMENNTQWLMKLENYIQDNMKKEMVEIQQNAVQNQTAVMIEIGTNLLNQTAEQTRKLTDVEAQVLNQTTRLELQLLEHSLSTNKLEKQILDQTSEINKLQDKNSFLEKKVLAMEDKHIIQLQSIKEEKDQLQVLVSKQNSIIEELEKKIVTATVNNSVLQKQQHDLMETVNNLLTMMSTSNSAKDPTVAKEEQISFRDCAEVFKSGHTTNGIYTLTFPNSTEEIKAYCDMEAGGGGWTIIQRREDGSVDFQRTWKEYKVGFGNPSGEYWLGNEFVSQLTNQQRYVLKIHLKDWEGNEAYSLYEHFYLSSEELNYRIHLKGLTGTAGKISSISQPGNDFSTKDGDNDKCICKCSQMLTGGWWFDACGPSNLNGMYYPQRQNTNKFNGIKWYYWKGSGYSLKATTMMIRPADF


Legend:
[1] = system: downstream signaling of the Tie2 receptor (Akt phosphorylation) in HUVECs; assay: Akt phosphorylation in HUVECs by mouse anti-Ang2 antibodies plus hAng2 (immunoblot); format: cell-based, human; settings: serum-starved HUVECs; antibody combined with hAng2 1 μg/ml; 30 min
Experimental: To investigate whether the mouse anti-Ang2 antibodies induce the downstream signaling of the Tie2 receptor in endothelial cells, HUVECs (LONZA™) were treated with a combination of hAng2 protein and anti-Ang2 antibody, and then the level of Akt phosphorylation, the main downstream signaling protein of Tie2 receptor, was analyzed by immunoblotting. As a negative control group, the full-length hAng2 (R&D® Systems) alone was treated into the cells.
Specifically, HUVECs (1×10^5 cells/ml) were cultured in EGM-2 medium (LONZA™) at 37° C. in a 60 mm culture dish. Cells (90% confluency) were incubated with serum-free EBM-2 medium for 4 hrs for serum starvation. The serum-starved HUVECs were treated with a mixture of anti-Ang2 antibody and hAng2 protein (1 μg/ml, R&D® Systems) and further incubated for 30 min. The cells were washed with cold PBS, treated with lysis buffer, and lysed at 4° C. for 20 min. Then, the cell lysates were prepared by centrifugation at 13000 rpm for 15 min. 5× SDS sample buffer was added to the cell lysate and the cell lysate was boiled at 95° C. for 5 min. Then, the cell lysate was subjected to SDS PAGE and proteins were transferred to a nitrocellulose membrane (GE).
To investigate Akt phosphorylation, the blot was blocked with 5% skim milk-containing TBS-T for 1 hr at room temperature (RT), and incubated with anti-phospho-Akt antibody (S473) at 4° C. for about 8 hrs. The amount of phospho-Akt was visualized by an enhanced chemiluminescence (ECL). Then, the membrane was incubated in a stripping buffer (Thermo) for 15 min, and then reprobed with an anti-Akt antibody to determine the amount of total Akt.

hAng2 = target: T1, hAng2; assay: OCTET affinity of mouse monoclonal anti-Ang2 antibodies against hAng2; settings: hAng2 fixed on AR2G biosensor, 1:1 binding model
Experimental: The affinity of mouse monoclonal antibody against hAng2 was measured using OCTET® system (ForteBio, real-time, label-free bio-layer interferometry system for determination of affinity, kinetics, and concentration). Specifically, buffer and samples were measured in total 200 μl/well using Black 96-well plates (96 well F-type black plates, Greiner). The biosensor used for affinity measurements was hydrated for 10 min before measurement with AR2G tip (ForteBio OCTET®). After the hydration, hAng2 was diluted in 10 mM sodium acetate, pH 6.0 buffer at a concentration of 10 μg/ml, fixed on AR2G biosensor, and blocked with 1M ethanolamine. The mouse monoclonal anti-Ang2 antibodies were diluted to 50, 25, 12.5, 6.25, 3.125, and 0 nM with 1× kinetic buffer, and subjected to association for 300 seconds and dissociation for 900 seconds. For affinity measurement (KD), the association rate (K-on) and dissociation rate (K-off) were analyzed by binding curve (global) and fitted to 1:1 binding model using OCTET® data analysis v9.0.0.10 program.

Molecule	Akt phosphorylation at S473 [1]	Koff (hAng2)	Kon (hAng2)
2C8: mouse monoclonal anti-Ang2 antibody; VH SEQ ID NO: 19, VL SEQ ID NO: 21; hybridoma KCLRF-BP-00417 (antibody, V domains shown, Heavy Chain Variable Region; Light Chain Variable Region, mouse monoclonal anti-Ang2 antibody; hybridoma KCLRF-BP-00417) VH: QVQLQQSGPQLVRPGASVKISCKASGYSFTSYWMHWVKQRPGQGLEWIGMIDPSDSETRLNQKFKDKASLTVDKSSSTAYMQLSSPTSGDSAVYYCARRFYYGSDWYFDVWGAGSTVTVSS VL: DIVMTQSHKFMSTSVGDRVSITCKASQDVGTAVAWYQQKPGQSPKLLIYWASTRHTGVPDRFTGSGSGTDFTLTISNVQSEDLADYFCQQYSSYPLTFGSGTKLEIK	strongly induced	3.54e-06 s⁻¹	77800 M⁻¹ s⁻¹
4B9: mouse monoclonal anti-Ang2 antibody; VH SEQ ID NO: 9, VL SEQ ID NO: 11; hybridoma KCLRF-BP-00418 (antibody, V domains shown, Heavy Chain Variable Region; Light Chain Variable Region, mouse monoclonal anti-Ang2 antibody; hybridoma KCLRF-BP-00418) VH: EVQLVESGGGLVKPGGSLKLSCAASGFTFSDYYMYWVRQTPEKRLEWVATISVGGSFTYYPDSVKGRFTISRDNAKNNLYLQMSSLKSEDTAMYYCARDWGLRPWFVYWGQGTLVTVSA VL: DIVMTQSHKFMSTSVGDRVSITCKASQDVSTAVAWYQQKPGQSPKLLIYWASTRHTGVPDRFTGSGSGTDYTLTISSVQAEDLALYYCQQHYSTPPTFGSGTKLEIK	strongly induced	5.04e-07 s⁻¹	137000 M⁻¹ s⁻¹
